Results from paper PMC8406323, “Cellular 5′-3′ mRNA Exoribonuclease XRN1 Inhibits Interferon Beta Activation and Facilitates Influenza A Virus Replication” (mBio, 2021).

Target: T1, GST-XRN1-C-terminal region (aa 1174–1706) fusion protein (human, UniProt Q8IZH2 1174-1706)
T1 construct: XRN1, human, C-terminal region aa 1174-1706 (vector pGEX-6P); Held on glutathione beads in the pull-down; also called GST-tagged-XRN1 (aa 1174–1706); source: E. coli BL21(DE3), purified (glutathione Sepharose 4B)
T1 sequence: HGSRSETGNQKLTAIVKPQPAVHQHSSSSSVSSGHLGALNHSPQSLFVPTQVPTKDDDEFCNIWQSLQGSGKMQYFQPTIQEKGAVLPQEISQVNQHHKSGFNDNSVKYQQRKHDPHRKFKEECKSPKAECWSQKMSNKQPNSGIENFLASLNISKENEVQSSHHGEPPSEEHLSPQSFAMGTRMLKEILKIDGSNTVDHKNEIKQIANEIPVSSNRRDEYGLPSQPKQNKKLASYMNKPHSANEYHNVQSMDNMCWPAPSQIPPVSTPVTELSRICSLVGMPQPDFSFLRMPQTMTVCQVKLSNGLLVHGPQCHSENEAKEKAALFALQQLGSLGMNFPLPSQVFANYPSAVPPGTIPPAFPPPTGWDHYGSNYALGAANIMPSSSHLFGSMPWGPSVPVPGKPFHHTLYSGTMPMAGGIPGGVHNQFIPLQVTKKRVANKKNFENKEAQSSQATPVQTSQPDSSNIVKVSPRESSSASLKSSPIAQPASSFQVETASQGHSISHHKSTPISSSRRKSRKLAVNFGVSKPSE
Experiment: pull-down
Details: both partners purified

B1: His-NS1 from PR8 (natural protein)
chain: MDPNTVSSFQVDCFLWHVRKRVADQELGDAPFLDRLRRDQKSLRGRGSTLGLDIETATRAGKQIVERILKEESDEALKMTMASVPASRYLTDMTLEEMSRDWSMLIPKQKVAGPLCIRMDQAIMDKNIILKANFSVIFDRLETLILLRAFTEEGAIVGEISPLPSLPGHTAEDVKNAVGVLIGGLEWNDNTVRVSETLQRFAWRSSNENGRPPLTPKQKREMAGTIRSEV
notes: also called His-tagged NS1; recombinant NS1
binding result: binds
